{"source": "patent US20090053243A1", "about": "(INSTITUTE FOR ANTIBODIES, published 2009)", "binders": {"B1": {"name": "IgG type antibody 035-029 (antibody, V domains shown)", "VH": "EVQLVESGGGLVKPGGSLRLSCAASGFTFSSYAMSWVRQAPGKGLEWVSAISGSGGSTYYADSVKGRFTISRDNSKNTLYLQMNSLRAEDTALYYCARDNWYFDLWGRGTLVTVSS", "VL": "SSELTQDPAVSVALGQTVRITCQGDSLRSYYASWYQQKPGQAPVLVIYGKNNRLSGIPDRFSGSSSGNTASLTITGAQAEDEADYYCNSRDSSGNHVVFGGGTKLTVLG", "notes": "also called IgG antibody clone 035-029; human IgG type antibody clone recognizing IgSF4"}}, "target": "T1, IgSF4 (Immunoglobulin superfamily member 4), human, as expressed by human cell lines (human, UniProt Q9BY67 45-442)", "T1 construct": "also called BL2; ST17", "T1 sequence": "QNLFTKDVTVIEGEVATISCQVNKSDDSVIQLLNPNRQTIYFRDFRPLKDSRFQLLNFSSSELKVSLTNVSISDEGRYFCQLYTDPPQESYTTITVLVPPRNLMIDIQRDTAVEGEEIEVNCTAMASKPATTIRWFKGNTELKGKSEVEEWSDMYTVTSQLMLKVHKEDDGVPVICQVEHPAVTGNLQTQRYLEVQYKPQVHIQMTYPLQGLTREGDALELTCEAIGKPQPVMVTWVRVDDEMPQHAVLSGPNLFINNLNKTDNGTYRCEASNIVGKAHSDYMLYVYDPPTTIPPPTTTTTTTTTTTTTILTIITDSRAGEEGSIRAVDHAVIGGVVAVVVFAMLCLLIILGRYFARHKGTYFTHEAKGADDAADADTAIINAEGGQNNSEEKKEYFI", "experiment": "statement in the ADCC experiment on VMRC-LCD target cells", "procedure": "As target cells to be used, lung cancer derived cultured cells VMRC-LCD (provided from Japanese Collection of Research Bioresources) was grown in a liquid culture medium 1 (Minimum Essential Medium Alpha Medium: Invitrogen, 10% (v/v) fetal bovine serum: Equitic-Bio, 1% (v/v) Penicillin-Streptomycin Solution: Sigma-Aldrich) on a culture dish having a diameter of 150 mm. The liquid culture medium was removed, cells were washed with 10 ml of PBS twice, and liquid was removed. To this, 5 ml of 4% (w/v) collagenase Type IV (Invitrogen) was added and maintained at 37° C. for 10 minutes, thereby peeling the cells off from the culture dish.\nInto a U-bottom 96-well multiplate (Becton Dickinson), 66 μl/well of target cells (2×10⁴ cells) were placed. To this, 66 μl of IgG antibody (3 μg/ml) was added, and then 66 μl of peripheral blood mononuclear leukocyte suspension (7.5×10⁵ cells) was added. The E/T ratio (ratio of the effector cells and target cells) was made to be 20. In order to prompt to associate cells, centrifugation (60×g, 4° C., 5 minutes) was carried out so as to precipitate cells in the bottom. Then, the cells were incubated for 240 minutes in a culture device under conditions of 37° C. and 5% CO₂, and thus the ADCC reaction was induced. Each antibody sample was prepared as a CTM solution. […] Furthermore, in each experiment group, three wells were used."}
{"binder": "B1", "values": [{"measurement": "binding result", "result": "binds"}]}
